From patent publication US5847088A, “Antibodies specific for platelet-activating factor acetylhydrolase” (ICOS Corporation, priority 1995, dated 1998)

Key:
[1] = Pharmacokinetics of PAF-AH in rat circulation (double mAb capture ELISA); assay type: in vivo; conditions: 2000 U IV, mean ± SEM
Method: Four rats received 2000 U of PAF-AH by IV injection in a 300 μl volume. Plasma was collected at various time points and stored at 4° C. and plasma concentrations of PAF-AH were determined by ELISA using a double mAb capture assay. In brief, monoclonal antibody 90G11D (Example 13) was diluted in 50 mM carbonate buffer pH 9.6 at 100 ng/ml and immobilized on Immulon 4 ELISA plates overnight at 4° C. After extensive washing with PBS containing 0.05% Tween 20, the plates were blocked for 1 hour at room temperature with 0.5% fish skin gelatin (Sigma) diluted in PBS. Serum samples diluted in PBS with 15 mM CHAPS were added in duplicate to the washed ELISA plate and incubated for 1 hour at room temperature. After washing, a biotin conjugate of monoclonal antibody 90F2D (Example 13) was added to the wells at a concentration of 5 μg/ml diluted in PBS and incubated for 1 hour at room temperature. After washing, 50 μl of a 1:1000 dilution of ExtraAvidin (Sigma) was added to the wells and incubated for 1 hour at room temperature. After washing, wells were developed using OPD as a substrate and quantitated. Enzyme activity was then calculated from a standard curve. […]

[2] = test system: PAF-induced pleurisy; assay: PAF-induced pleurisy (Evans blue vascular leakage); assay type: in vivo, rat; conditions: 300 μl PAF-AH (1500 μmol/ml/hour) IV 15 minutes before 2.0 nmol PAF, 1 hour
Method: Fifteen minutes later the rats received an 100 μl injection of PAF (2.0 nmol) into the pleural space. One hour following PAF challenge, rats were sacrificed and the pleural fluid was collected by rinsing the cavity with 3 ml heparinized phosphate buffered saline. The degree of vascular leak was determined by the quantity of Evans blue dye in the pleural space which was quantitated by absorbance at 620 nm.

B1: PAF-AH: Recombinant human plasma platelet-activating factor acetylhydrolase (beginning at Ile42 of SEQ ID NO:8) expressed in E. coli (protein, UniProt Q13093 22-441, looked up)
Platelet-activating factor …: FDWQYINPVAHMKSSAWVNKIQVLMAAASFGQTKIPRGNGPYSVGCTDLMFDHTNKGTFLRLYYPSQDNDRLDTLWIPNKEYFWGLSKFLGTHWLMGNILRLLFGSMTTPANWNSPLRPGEKYPLVVFSHGLGAFRTLYSAIGIDLASHGFIVAAVEHRDRSASATYYFKDQSAAEIGDKSWLYLRTLKQEEETHIRNEQVRQRAKECSQALSLILDIDHGKPVKNALDLKFDMEQLKDSIDREKIAVIGHSFGGATVIQTLSEDQRFRCGIALDAWMFPLGDEVYSRIPQPLFFINSEYFQYPANIIKMKKCYSPDKERKMITIRGSVHQNFADFTFATGKIIGHMLKLKGDIDSNVAIDLSNKASLAFLQKHLGLHKDFDQWDCLIEGDDENLIPGTNINTTNQHIMLQNSSGIEKYN
[1]
  plasma enzyme level at one hour: 374 U/ml
[2]
  reduction in inflammation (vascular leakage, Evans blue in pleural space): > 80%
